Molecular target: recombinant, GPI-linked human FcRn on the surface of NS0 cells (human) (UniProt P55899)
Assay: competitive flow cytometry on NS0 cells with human FcRn, pH 6.0; competitor biotinylated TNF-RII/Fc-fusion protein

fold better binding than the wild-type: 2 fold
Substance: TNF-RII/Fc-fusion protein double mutant T250Q/M428L (Fc fusion)

— patent US20050226864A1
